# Data from PMC5909430 (Nucleic Acids Research, 2018).
# T1: LeishIF4E-1 (Leishmania cap-binding isoform 1) (Leishmania major, UniProt E9ADE1 1-214)
# T1 sequence (looked up): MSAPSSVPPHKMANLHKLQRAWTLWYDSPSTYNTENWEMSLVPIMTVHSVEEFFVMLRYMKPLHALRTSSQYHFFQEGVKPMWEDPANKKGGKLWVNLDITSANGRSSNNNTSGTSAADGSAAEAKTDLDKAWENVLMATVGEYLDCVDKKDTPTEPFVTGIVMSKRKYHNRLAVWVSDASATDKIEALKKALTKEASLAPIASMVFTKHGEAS
# B1: Leish4E-IP1 (construct not stated; data not shown) (domain or fragment, Leishmania major, UniProt E9AFM3 1-52, looked up)
# chain: MPSVRTMYTREELLRIATLASAMDLGPEVLRKFDVIEVAEPVPTPKRRDAES
# B2: Leish4E-IP1_(1–100) (domain or fragment, Leishmania major, UniProt E9AFM3 1-100, looked up)
# chain: MPSVRTMYTREELLRIATLASAMDLGPEVLRKFDVIEVAEPVPTPKRRDAESNFKGSVFTDNFSTSTTITNLGPNGGGNSGGKGGHNSGMNGGGSSSNHP
# B3: Leish4E-IP1_(1–52) (domain or fragment, Leishmania major, UniProt E9AFM3 1-52, looked up)
# chain: MPSVRTMYTREELLRIATLASAMDLGPEVLRKFDVIEVAEPVPTPKRRDAES
# How the values were obtained:
# [1] = molecular target: human eIF4E (human, UniProt P06730 1-217)
# [2] = molecular target: T1, LeishIF4E-1 (Leishmania cap-binding …); experiment: ITC
# Chain of human eIF4E (P06730 whole entry): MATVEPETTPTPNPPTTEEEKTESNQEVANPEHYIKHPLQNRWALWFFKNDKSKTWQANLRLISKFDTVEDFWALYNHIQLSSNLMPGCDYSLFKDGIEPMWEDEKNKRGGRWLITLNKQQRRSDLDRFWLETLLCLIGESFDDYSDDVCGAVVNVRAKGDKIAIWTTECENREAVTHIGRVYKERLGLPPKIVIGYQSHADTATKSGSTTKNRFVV
binder,measurement,setting,value
B1,fold lower binding affinity than for LeishIF4E-1,[1],10 fold
B2,Kd,[2],87 nM
same,dH,[2],-3110 ± 80.4 cal/mol
B3,Kd,[2],9.7 nM
same,dH,[2],-15500 ± 282 cal/mol
